Results on ten molecules are retold here after US20240115611A1 (KITE PHARMA, published 2024).

Sequences and labels used below:
T1: CD20 (human CD20) (human, UniProt P11836 1-297)
T1 construct: whole, on cells; The cell line for each value is named under assay
T1 sequence (looked up): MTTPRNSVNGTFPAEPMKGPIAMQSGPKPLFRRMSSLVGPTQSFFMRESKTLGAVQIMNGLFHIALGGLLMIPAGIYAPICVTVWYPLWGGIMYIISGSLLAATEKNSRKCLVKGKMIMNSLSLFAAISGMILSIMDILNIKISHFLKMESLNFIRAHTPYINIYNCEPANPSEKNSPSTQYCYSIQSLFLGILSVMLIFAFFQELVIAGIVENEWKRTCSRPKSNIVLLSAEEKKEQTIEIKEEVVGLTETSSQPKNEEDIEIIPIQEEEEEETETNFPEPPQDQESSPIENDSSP

B1: Ab4 (Exemplary Antibody Sequences 4), anti-CD20 antibody (antibody, V domains shown)
VH: QVQLVQSGAEVKKPGASVKVSCKASGYTFKEYGISWVRQAPGQGLEWMGWISAYSGHTYYAQKLQGRVTMTTDTSTSTAYMELRSLRSDDTAVYYCARGPHYDDWSGFIIWFDPWGQGTLVTVSS
VL: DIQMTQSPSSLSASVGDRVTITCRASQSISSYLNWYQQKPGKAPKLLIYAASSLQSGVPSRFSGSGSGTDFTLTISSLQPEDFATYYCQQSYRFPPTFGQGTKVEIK
B2: Ab10 (Exemplary Antibody Sequences 10), anti-CD20 antibody (antibody, V domains shown)
VH: QVQLQQWGAGLLKPSETLSLTCAVYGGSFQKYYWSWIRQPPGKGLEWIGEIDTSGFTNYNPSLKSRVTISVDTSKNQFSLKLSSVTAADTAVYYCARVGRYSYGYYITAFDIWGQGTTVTVSS
VL: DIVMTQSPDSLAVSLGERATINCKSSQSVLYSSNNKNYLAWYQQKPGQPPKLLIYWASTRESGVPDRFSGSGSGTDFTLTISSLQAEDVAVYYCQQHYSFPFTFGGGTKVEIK
B3: Ab2 (Exemplary Antibody Sequences 2), anti-CD20 antibody (antibody, V domains shown)
VH: QVQLQQWGAGLLKPSETLSLTCAVYGGSFSGIHWNWIRQPPGKGLEWIGDIDTSGSTNYNPSLKSRVTISVDTSKNQFSLKLSSVTAADTAVYYCARLGQESATYLGMDVWGQGTTVTVSS
VL: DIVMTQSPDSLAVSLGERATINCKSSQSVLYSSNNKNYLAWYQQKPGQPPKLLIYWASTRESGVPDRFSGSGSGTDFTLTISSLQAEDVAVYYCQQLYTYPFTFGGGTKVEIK
B4: Ab1 (Exemplary Antibody Sequences 1), anti-CD20 antibody (antibody, V domains shown)
VH: QVQLQQWGAGLLKPSETLSLTCAVYGGSFSGYYWSWIRQPPGKGLEWIGEIDHSGSTNYNPSLKSRVTISVDTSKNQFSLKLSSVTAADTAVYYCARGGGSWYSNWFDPWGQGTMVTVSS
VL: DIQMTQSPSTLSASVGDRVTITCRASQSISSWLAWYQQKPGKAPKLLIYDASSLESGVPSRFSGSGSGTEFTLTISSLQPDDFATYYCQQDRSLPPTFGGGTKVEIK
B5: Ab3 (Exemplary Antibody Sequences 3), anti-CD20 antibody (antibody, V domains shown)
VH: QLQLQESGPGLVKPSETLSLTCTVSGGSISSSSYYWGWIRQPPGKGLEWIGSIYYSGSTYYNPSLKSRVTISVDTSKNQFSLKLSSVTAADTAVYYCARETDYSSGMGYGMDVWGQGTTVTVSS
VL: DIQMTQSPSSLSASVGDRVTITCRASQSINSYLNWYQQKPGKAPKLLIYAASSLQSGVPSRFSGSGSGTDFTLTISSLQPEDFATYYCQQSLADPFTFGGGTKVEIK
B6: Ab6 (Exemplary Antibody Sequences 6), anti-CD20 antibody (antibody, V domains shown)
VH: QITLKESGPTLVKPTQTLTLTCTFSGFSLDTEGVGVGWIRQPPGKALEWLALIYFNDQKRYSPSLKSRLTITKDTSKNQVVLTMTNMDPVDTAVYYCARDTGYSRWYYGMDVWGQGTTVTVSS
VL: B5 VL with L11V, S28G, N30S, Y32W, N34A, S91A, L92Y, D94Y, F96I
B7: Ab5 (Exemplary Antibody Sequences 5), anti-CD20 antibody (antibody, V domains shown)
VH: B5 VH with L2V, S32P, S33D, Y34H, Y55A, Y60F
VL: B5 VL
B8: Ab8 (Exemplary Antibody Sequences 8), anti-CD20 antibody (antibody, V domains shown)
VH: QVQLQQWGAGLLKPSETLSLTCAVYGGSFSRYVWSWIRQPPGKGLEWIGEIDSSGKTNYNPSLKSRVTISVDTSKNQFSLKLSSVTAADTAVYYCARVRYDSSDSYYYSYDYGMDVWGQGTTVTVSS
VL: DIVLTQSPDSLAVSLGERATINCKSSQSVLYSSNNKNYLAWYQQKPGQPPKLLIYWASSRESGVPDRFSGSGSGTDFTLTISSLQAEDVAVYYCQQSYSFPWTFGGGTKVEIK
B9: Ab7 (Exemplary Antibody Sequences 7), anti-CD20 antibody (antibody, V domains shown)
VH: B8 VH with S30E, R31K, V33Y, D52Y, S53H, K56L
VL: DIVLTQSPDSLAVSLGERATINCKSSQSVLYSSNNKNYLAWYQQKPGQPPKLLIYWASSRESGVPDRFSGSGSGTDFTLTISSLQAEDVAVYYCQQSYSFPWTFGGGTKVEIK
B10: Ab9 (Exemplary Antibody Sequences 9), anti-CD20 antibody (antibody, V domains shown)
VH: B8 VH with R31G, V33A, S53H, S54R, K56F
VL: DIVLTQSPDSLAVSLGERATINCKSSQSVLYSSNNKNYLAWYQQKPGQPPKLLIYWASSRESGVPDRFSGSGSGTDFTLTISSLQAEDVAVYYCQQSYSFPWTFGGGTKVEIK

Positions count from the first letter of the chain named.

The first experiment concerns the target T1, CD20 (human CD20). Nature of the experiment: flow cytometry, purified IgG at 10 nM on Namalwa cells (CD20+), FITC-LC detection, ratio over negative control. As to the method:
(§1) To determine cell binding by exemplary heavy chain variable domains and light chain variable domains of the present disclosure, purified IgGs were characterized for cell binding at a concentration of 10 nM by flow cytometry. Antibodies were incubated with CHO-S cells overexpressing CD20, Raji, and Namalwa CD20+ cell lines; and with EoL-1 and CHO-S CD20-cell lines. FITC-LC was used to detect IgGs. The ratio of binding over negative controls was calculated for each antibody.
As to B1, the “Namalwa Cell Binding FON (Fold Over Negative)” value was determined as 19 fold.

For B2, the “Namalwa Cell Binding FON (Fold Over Negative)” value worked out at 4 fold.

For the molecule B3, the “Namalwa Cell Binding FON (Fold Over Negative)” value was 3 fold.

On to B4, for which the “Namalwa Cell Binding FON (Fold Over Negative)” value was 12 fold.

Turning to B5, the “Namalwa Cell Binding FON (Fold Over Negative)” value amounted to 16 fold.

In the case of B6, the “Namalwa Cell Binding FON (Fold Over Negative)” value amounted to 2 fold.

Consider B7, for which the “Namalwa Cell Binding FON (Fold Over Negative)” value worked out at 17 fold.

Take B8: the “Namalwa Cell Binding FON (Fold Over Negative)” value was 10 fold.

On to B9, for which the “Namalwa Cell Binding FON (Fold Over Negative)” value is 11 fold.

As to B10, the “Namalwa Cell Binding FON (Fold Over Negative)” value came to 11 fold.

Another experiment has as its target T1, CD20 (human CD20). Nature of the experiment: flow cytometry, purified IgG at 10 nM on CHO-S cells overexpressing CD20, FITC-LC detection, ratio over negative control. As to the method:
as §1
(In general: Flow cytometry measures light scatter and fluorescence of single cells or particles in a stream.)
As for B1, the “CHO-CD20 Cell Binding FOB (Fold Over Background)” value is 3620 fold.

For the molecule B2, the “CHO-CD20 Cell Binding FOB (Fold Over Background)” value stood at 3160 fold.

For B3, the “CHO-CD20 Cell Binding FOB (Fold Over Background)” value was 2790 fold.

Regarding B4, the “CHO-CD20 Cell Binding FOB (Fold Over Background)” value was determined as 813 fold.

For B5, the “CHO-CD20 Cell Binding FOB (Fold Over Background)” value turned out to be 2000 fold.

B6: the “CHO-CD20 Cell Binding FOB (Fold Over Background)” value was found to be 2520 fold.

Regarding B7, the “CHO-CD20 Cell Binding FOB (Fold Over Background)” value turned out to be 2480 fold.

For B8, the “CHO-CD20 Cell Binding FOB (Fold Over Background)” value was 3830 fold.

For the molecule B9, the “CHO-CD20 Cell Binding FOB (Fold Over Background)” value turned out to be 4080 fold.

Turning to B10, the “CHO-CD20 Cell Binding FOB (Fold Over Background)” value worked out at 3620 fold.

In another experiment the target is T1, CD20 (human CD20). The experiment is described as follows: flow cytometry, purified IgG at 10 nM on Raji cells (CD20+), FITC-LC detection, ratio over negative control. As to the method:
as §1
Take B1: the “Raji Cell Binding FON (Fold Over Negative)” value was 479 fold.

Regarding B2, the “Raji Cell Binding FON (Fold Over Negative)” value is 186 fold.

As to B3, the “Raji Cell Binding FON (Fold Over Negative)” value turned out to be 101 fold.

For B4, the “Raji Cell Binding FON (Fold Over Negative)” value stood at 266 fold.

As to B5, the “Raji Cell Binding FON (Fold Over Negative)” value stood at 316 fold.

On to B6, for which the “Raji Cell Binding FON (Fold Over Negative)” value came to 13 fold.

B7: the “Raji Cell Binding FON (Fold Over Negative)” value is 185 fold.

On to B8, for which the “Raji Cell Binding FON (Fold Over Negative)” value worked out at 562 fold.

For B9, the “Raji Cell Binding FON (Fold Over Negative)” value was found to be 549 fold.

As for B10, the “Raji Cell Binding FON (Fold Over Negative)” value was 562 fold.
